Laboratory results as given in paper PMC2603627.

Molecular target: GST-tagged p63RhoGEF (UniProt Q86VW2)
Assay: pull-down

Sequence of UniProt Q86VW2 (Q86VW2 whole entry): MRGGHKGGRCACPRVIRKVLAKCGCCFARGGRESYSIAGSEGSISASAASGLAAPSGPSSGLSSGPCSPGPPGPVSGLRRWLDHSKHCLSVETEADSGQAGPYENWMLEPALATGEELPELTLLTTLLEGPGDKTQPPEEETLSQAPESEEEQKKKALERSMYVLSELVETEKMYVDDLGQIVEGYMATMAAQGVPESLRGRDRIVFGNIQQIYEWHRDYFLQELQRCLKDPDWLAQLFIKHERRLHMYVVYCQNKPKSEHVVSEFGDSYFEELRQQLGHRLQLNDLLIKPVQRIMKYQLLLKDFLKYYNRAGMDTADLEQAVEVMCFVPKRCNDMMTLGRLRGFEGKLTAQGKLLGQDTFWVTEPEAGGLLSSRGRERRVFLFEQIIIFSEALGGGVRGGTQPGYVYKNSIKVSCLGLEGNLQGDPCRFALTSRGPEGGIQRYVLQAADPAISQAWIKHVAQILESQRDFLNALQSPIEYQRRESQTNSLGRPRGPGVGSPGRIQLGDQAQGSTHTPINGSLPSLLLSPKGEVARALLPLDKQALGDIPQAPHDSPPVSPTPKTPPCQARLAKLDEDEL

% associated MLK3/input MLK3 after overnight incubation [%]	amount in GST-p63RhoGEF complexes relative to FLAG-MLK3^KR [fold]	Substance
44		FLAG-MLK3^KR (kinase-deficient, ATP-binding point mutant of MLK3) (from UniProt Q16584 1-847) (enzyme)
	2	FLAG-MLK3^KR/T277D,S281D (from UniProt Q16584 1-847) (enzyme)
